# Measured values published in the supplement of paper PMC10126150.
# ± gives the standard deviation of the averaged measurements.
# System: ATP
# Test: switch fluorescence ratio, 500 uM ATP over buffer (Cy3 cluster intensity, sum of 5 cycles each) (fold (ratio)); higher = stronger signal-on switching upon ATP binding; sequences stand for … in TCGTCGGCAGCGTCAGATGTGTATAAGAGACAGTTTTTTTTTTTTTTTTTTTTTTTTT…TC
# Settings: aptamer strand: ATP DNA aptamer (quencher-CACCTGGGGGAGTATTGCGGAGGAAGG + anchor), 100 nM annealed; ATP concentration: 500 uM
# Procedure, shortened: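 Imaging in selection buffer was followed by imaging after 15 min with 500 uM ATP at 22 °C, for Cy3-labelled switching-strand clusters annealed to 100 nM quencher-labelled ATP aptamer on a modified Illumina MiSeq flow-cell. Five of these buffer/ATP cycles ran, separated by NaOH stripping and re-annealing. The fluorescence ratio per cluster is summed target-cycle over summed buffer-cycle Cy3 intensity, averaged per switch-domain sequence; clusters outside 100-1000 RFU were removed.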
# 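Also: ATP exposure 15 min at 22 °C before imaging.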
row,Sequence,switch fluorescence ratio
1,GTTAGGGGG,1.02 ± 0.023
2,AGCGCGTTGT,1.02 ± 0.044
3,TGGGTGTGG,1.015 ± 0.0075
4,GATGATGTCC,0.96 ± 0.01
5,GTCGAAAGGT,0.984 ± 0.019
6,TCACAATTTT,1.08 ± 0.097
7,TTCATTGGTA,1.0186 ± 0.00056
8,CATAATATTG,0.991 ± 0.011
9,GCTCGACGGC,1.017 ± 0.0018
10,ACTAAATCCT,1.19 ± 0.02
11,TTCTGGTGAT,0.999 ± 0.021
12,GTTGGTCGGG,1.02 ± 0.037
13,TTATGCACGT,1.04 ± 0.049
14,TATGTGTTTC,1.18 ± 0.25
15,AGCAAGTCCT,1.12 ± 0.015
16,CAGTCTTATT,0.9712 ± 0.0087
17,GAGGGCTTAG,0.992 ± 0.016
18,CGTTGAGTTT,0.994 ± 0.047
19,GATGATCAG,0.978 ± 0.035
20,AAGTAGACTG,0.996 ± 0.11
21,CGCTTGAGTC,1.025 ± 0.0062
22,AATGGGTTCC,1.027 ± 0.0044
23,GTGTACCCGT,0.96 ± 0.035
24,GATGGATAAG,1.009 ± 0.0024
25,TGGGGGTCAT,1.05 ± 0.061

row,Sequence,switch fluorescence ratio
1,ACCGATTTTT,1.047 ± 0.01
2,GGAGATGCAG,0.969 ± 0.046
3,TCTAAAAGAT,0.9771 ± 0.0026
4,ATATTTCTAA,1.0113 ± 0.00013
5,AGGGGGTTGC,1.01 ± 0.026
6,GGTTTCGGTG,1.008 ± 0.0098
7,GGGCAGGGTT,0.999 ± 0.03
8,CGGGCTACTA,1.05 ± 0.016
9,TCGTACGTTG,1.01 ± 0.022
10,TGATTCTTGA,1.03 ± 0.064
11,ATGGGGAAGC,1.03 ± 0.058
12,GGAAATATTT,0.98 ± 0.016
13,GGTATCCGGC,1.03 ± 0.088
14,GGCCCTGGGA,1.02 ± 0.029
15,GGATTGAGGG,0.968 ± 0.021
16,GTGGGTTGTA,1.01 ± 0.05
17,GTGGCAAAGT,0.9678 ± 9.7e-05
18,ATCTGGGCGG,0.997 ± 0.029
19,ATTTTGGTCG,0.982 ± 0.082
20,CTTTCGATAG,1.06 ± 0.049
21,ATACTATCTT,0.996 ± 0.019
22,CTAGCACTGT,1.045 ± 0.0022
23,GGAATTGAGT,1.02 ± 0.021
24,GCGAGTACGA,1.02 ± 0.032
25,TTTGTTTAGA,0.9917 ± 0.0069

row,Sequence,switch fluorescence ratio
1,TAAAGTTAAA,1 ± 0.048
2,ATAGGAAATA,1.06 ± 0.035
3,TTGGACCATG,1.01 ± 0.038
4,CGGAAGTGCC,1.016 ± 0.0014
5,CGTTTTGGCA,1.02 ± 0.027
6,AGAAATGATA,1.001 ± 0.0019
7,TGTTGTAGTG,0.973 ± 0.017
8,GGGGAAGCGA,1.09 ± 0.038
9,TACGCTCTCA,1.21 ± 0.23
10,GAGGGGGGCT,1.023 ± 0.006
11,ATGGGGGTA,1.004 ± 0.002
12,ACTCGAAAAA,1.04 ± 0.026
13,GGCAGTACGT,1.27 ± 0.066
14,TGGAGAAATT,0.952 ± 0.13
15,GGGCATAATG,1.02 ± 0.041
16,ATTATAGTGG,1.04 ± 0.02
17,CAGGGGTCGT,1.03 ± 0.038
18,GTTGGGGTAA,0.9927 ± 0.0067
19,ATGCGCGCCG,0.982 ± 0.037
20,GGTTAAGAAC,0.993 ± 0.019
21,GACTGGGCGG,1 ± 0.021
22,TTCATTTTGG,1.05 ± 0.07
23,TATAAGAGTT,1.02 ± 0.035
24,CGCTAAAGTG,1.06 ± 0.086
25,AATAGGGGAG,1 ± 0.037

row,Sequence,switch fluorescence ratio
1,CGTCGGGGGA,1.01 ± 0.027
2,GAGTGAGTTA,0.977 ± 0.032
3,CATCTTATGA,0.99 ± 0.0043
4,AGTCCTTGGA,0.99 ± 0.069
5,GTTTGTGGTG,1.01 ± 0.017
6,AAGGGTAATG,0.9875 ± 0.0042
7,CTTGGATTCC,1 ± 0.021
8,AAAATCGCGT,0.998 ± 0.057
9,CGAAAATTCG,1.03 ± 0.048
10,TCACGGGGCT,1.01 ± 0.068
11,TCATGAGTTG,0.963 ± 0.018
12,TTGGGTGTTA,0.9907 ± 0.0021
13,TTGTTGAGTG,0.968 ± 0.028
14,CAGGTAATAG,1.17 ± 0.028
15,GGAGAAGTGG,0.976 ± 0.034
16,AAAATGGAAG,0.9997 ± 0.0056
17,TGCGGTATGG,1.03 ± 0.017
18,AGAACTGTAA,1.08 ± 0.034
19,CGAAAGGCTA,1.15 ± 0.18
20,TATTGTGAGT,0.996 ± 0.057
21,CTAACGTGAG,1.02 ± 0.034
22,GTTCCTCGCT,2.77 ± 0.33
23,AATTGACTGT,1.07 ± 0.025
24,TGTGCTATGT,0.995 ± 0.028
25,ACCAAATACT,1.26 ± 0.014

row,Sequence,switch fluorescence ratio
1,ATCAATGACG,0.95 ± 0.059
2,GGCATTAGTT,0.992 ± 0.043
3,ACCAGGGAAA,1.01 ± 0.014
4,TACTCGAAAC,1.8 ± 0.97
5,GGTTGTAAGG,1.01 ± 0.033
6,AGAGGGGGAG,0.979 ± 0.027
7,TGAATGGGGT,0.987 ± 0.02
8,ATGTTTTAAA,0.9756 ± 0.0086
9,TGGGAACCAG,0.999 ± 0.015
10,TATGAGAGAG,1.03 ± 0.02
11,AGAAGGATGG,0.983 ± 0.026
12,TTACGTTAAT,1.18 ± 0.095
13,ATAGTGATCG,0.994 ± 0.042
14,AAAGTCACAC,1.04 ± 0.022
15,CTGGACGGTG,1.032 ± 0.0042
16,GTGTTTCTAT,1 ± 0.013
17,TTAAAGTTAT,0.986 ± 0.061
18,AGGTTGATGG,0.954 ± 0.043
19,TTTAAAATTG,0.989 ± 0.042
20,TTTAAATGGG,1 ± 0.021
21,TGCAAAGGTG,1.34 ± 0.094
22,CGATAAGGGG,1.02 ± 0.018
23,CGTCATATGG,1.07 ± 0.012
24,GCGTGCATTA,0.984 ± 0.034
25,ATGAGTTTTC,1.024 ± 0.0043

row,Sequence,switch fluorescence ratio
1,ATATCCGTTT,0.974 ± 0.066
2,TACAATCGGA,0.9791 ± 0.0067
3,GCGATTTGGC,1.01 ± 0.056
4,CTCATAGGGG,1.07 ± 0.024
5,CGATTGGTGT,1.02 ± 0.021
6,CGGTGCGCTG,0.9964 ± 0.0016
7,GATGGTAGTC,0.994 ± 0.027
8,AAGCGAACAT,1.08 ± 0.076
9,GTTGCTATGA,1.02 ± 0.017
10,TTATTATAAT,0.982 ± 0.021
11,AAGAGTTGAC,0.947 ± 0.059
12,TGCTAATTGA,1.01 ± 0.037
13,ACCTTTTGTA,1 ± 0.032
14,TAGAGGGGAG,1.02 ± 0.022
15,TTGATTAAAT,0.9575 ± 0.0089
16,TTCTTTGAGA,1.006 ± 0.0062
17,TGTCACTGTT,0.965 ± 0.022
18,GAGCTTTTCA,0.965 ± 0.023
19,GCCAGGTTCC,1.09 ± 0.034
20,AGTGGGGCC,1 ± 0.075
21,AGAAGGGGCG,1.02 ± 0.06
22,AAGGGAGAGC,1.03 ± 0.06
23,TTGGATGGGG,0.972 ± 0.017
24,ATAGTACGTG,1.01 ± 0.024
25,CCCTTTATTT,1.29 ± 0.36

row,Sequence,switch fluorescence ratio
1,AAATAAATAA,0.944 ± 0.011
2,GGTTTTCATT,0.951 ± 0.053
3,TTTGTGGTTT,0.985 ± 0.043
4,TAATTTTTAG,1.01 ± 0.025
5,ATTGGAGTCG,0.9477 ± 0.0084
6,TTGTATTTGC,0.976 ± 0.031
7,AAGCTCTGAG,1.03 ± 0.017
8,ATGTAATAAT,0.983 ± 0.027
9,TACGTATGGG,0.997 ± 0.021
10,CTGAATGCGT,0.9844 ± 0.0084
11,TCGGGTAAGA,1.04 ± 0.026
12,CATGGGAGGT,0.9711 ± 0.0067
13,CGGGTACCAG,1.01 ± 0.043
14,TTGATGAATT,1.01 ± 0.017
15,AAGGGGCGGA,0.97 ± 0.016
16,GTGTAGGCTT,1 ± 0.015
17,TGTTGCTAGG,0.992 ± 0.031
18,TTCGTACTTT,1 ± 0.043
19,TCATCATTCG,0.9668 ± 0.0052
20,GTGTTTACGA,0.984 ± 0.027
21,TTTTGTATAT,1.01 ± 0.025
22,AGCTCGGGGG,1 ± 0.034
23,AACACGAATT,0.998 ± 0.025
24,AATTTGCGGG,0.98 ± 0.024
25,GTGTCATTTT,0.991 ± 0.025

row,Sequence,switch fluorescence ratio
1,CTAGAAGGGA,0.9965 ± 0.0049
2,TGGGATCGAG,0.9719 ± 0.0032
3,ACTTTGGGGA,1.033 ± 0.0065
4,GCATTAATCG,1.01 ± 0.025
5,GGAGAGGGTA,1.01 ± 0.035
6,GCGCTTGGGA,1.03 ± 0.056
7,CTGTGGGGGC,1.01 ± 0.016
8,TAGGGAGGGG,0.973 ± 0.028
9,TGAATCGGGG,1.027 ± 0.0014
10,TGGTATAGGC,1.04 ± 0.027
11,GGGTTTTTTA,0.988 ± 0.022
12,TCCTTTTTGC,1.07 ± 0.069
13,TGTAACTGAG,1.0374 ± 3e-05
14,AGCGCAAGAT,1.791 ± 0.013
15,AGGACTAAGG,0.98 ± 0.026
16,AAGGTCGGCC,0.966 ± 0.017
17,GCGTTACGGG,1.002 ± 0.0089
18,GCGATATGTG,1.013 ± 0.0073
19,GCGCTGGCGG,1.01 ± 0.024
20,TGCTTAAGTT,0.999 ± 0.021
21,AATTCAGGCA,0.98668 ± 0.00049
22,ATCGTGGGGT,0.971 ± 0.016
23,GTTATTGCTC,1.12 ± 0.19
24,TAGGGCGTTC,1.02 ± 0.079
25,GGTGGGTGCT,0.995 ± 0.052
